These results are taken from article PMC8379176 (Nature Communications, 2021).

Substitutions are numbered along the chain they refer to.

In series [1] the target is HA-tagged ghrelin receptor F286D (human) (UniProt Q92847).
The conditions of series [2]: cited from earlier work. The source says:
Food intake is one of the most fundamental processes required for sustaining human life.

The test system of series [3] is ghrelin receptor (WT or mutants). The series is described as follows: Cell-surface expression assay (FACS). The series is classed as cell-based, human. How it is done: Cell-surface expression for each mutant was monitored by a fluorescence-activated cell sorting (FACS) assay. In brief, the expressed cells were incubated with mouse anti-HA-FITC antibody (Sigma) at a dilution of 1:200 for 20 min at 4 °C, and then a 9-fold excess of PBS was added to cells. […] The FACS data were analyzed by BD Accuri C6 software 1.0.264.21. The gating strategy and calculation method of expression are shown in Supplementary Fig. 11.
Supplementary Figure 11 | Gating strategy of cell surface expression assay. Circle a gate P1 in the scatter map (black circle). The cells shown in the histogram map are all the cells in the gate P1 in the scatter map. Fluorescence signal intensity (FITC) is presented by […]. With the Blank sample as the reference value of background fluorescence signal (a), the fluorescence signal histogram map is divided into two regions. The left region represents the negative cell community (FITC-), while the right region represents the positive cell community (FITC+). The expression level of cell surface wild-type (WT) ghrelin receptor (b) can be calculated as follows:
(M(FITC+)-M(FITC-))×(FITC+% Parent). M, mean fluorescence intensity. The expression level of the ghrelin receptor mutant is calculated similarly to WT receptor and then is normalized with the WT to calculate the relative expression value. […]

As to “ghrelin (octanoylated at Ser3) (peptide)”, in series [1], the fold decrease in calcium response of HEK293 cells, activity of ghrelin against the WT receptor was over 250 fold.
As to ghrelin, the “growth hormone-releasing activity” value in series [2] is recorded as “potent growth hormone-releasing activity”.

B1: Q3027.32A (protein)
chain: MWNATPSEEPGFNLTLADLDWDASPGNDSLGDELLQLFPAPLLAGVTATCVALFVVGIAGNLLTMLVVSRFRELRTTTNLYLSSMAFSDLLIFLCMPLDLVRLWQYRPWNFGDLLCKLFQFVSESCTYATVLTITALSVERYFAICFPLRAKVVVTKGRVKLVIFVIWAVAFCSAGPIFVLVGVEHENGTDPWDTNECRPTEFAVRSGLLTVMVWVSSIFFFLPVFCLTVLYSLIGRKLWRRRRGDAVVGASLRDQNHKQTVKMLAVVVFAFILCWLPFHVGRYLFSKSFEPGSLEIAQISAYCNLVSFVLFYLSAAINPILYNIMSKKYRVAVFRLLGFEPFSQRKLSTLKDESSRAWTESSINT
modifications: SNAP tag labelled with SNAP-Lumi4-Tb; left off: SNAP, N-terminal, kept
Regarding B1, the Cell-surface expression in series [3] (replicate 1) was determined as 99.52%; in series [3] (replicate 2), 91.82%; in series [3] (replicate 3) it was 87.39%; in series [3] (replicate 4), 99.41%; in series [3] (replicate 5), 85.20%.

B2: F3127.42A (protein)
chain: B1 chain with A302Q, F312A
modifications: SNAP tag labelled with SNAP-Lumi4-Tb; left off: SNAP, N-terminal, kept
In the case of B2, the Cell-surface expression was 89.96% in series [3] (replicate 1); 82.57% in series [3] (replicate 2); 78.32% in series [3] (replicate 3); 82.11% in series [3] (replicate 4); 77.05% in series [3] (replicate 5).

B3: N3057.35A (protein)
chain: B1 chain with A302Q, N305A
modifications: left off: SNAP, N-terminal, kept
Consider B3, for which the Cell-surface expression in series [3] (replicate 1) worked out at 83.54%; in series [3] (replicate 2), 81.81%; in series [3] (replicate 3), 86.10%; in series [3] (replicate 4) it was 86.24%; in series [3] (replicate 5) it was 88.82%.

B4: F3097.39A (protein)
chain: B1 chain with A302Q, F309A
modifications: SNAP tag labelled with SNAP-Lumi4-Tb; left off: SNAP, N-terminal, kept
Take B4: the Cell-surface expression in series [3] (replicate 1) amounted to 77.16%; in series [3] (replicate 2), 85.09%; in series [3] (replicate 3) it was 81.26%; in series [3] (replicate 4), 79.68%; in series [3] (replicate 5), 76.65%.

B5: A204ECL2E (protein, UniProt Q92847 1-366, looked up, variant A204E)
Growth hormone secretagogue …: B1 chain with A204E, A302Q
As for B5, the Cell-surface expression in series [3] (replicate 1) is reported as 81.34%; in series [3] (replicate 2), 81.24%; in series [3] (replicate 3) it was 78.97%; in series [3] (replicate 4) it was 76.38%; in series [3] (replicate 5), 75.96%.
